Data set [1] deals with the molecule itself. Nature of the data set: SEC; purified full-length MBP-NLRP1, Superose 6 increase (10/300) GL, 0.5 ml/min, buffer A (25 mM Hepes pH 7.5, 150 mM NaCl, 0.5 mM TCEP, 10% glycerol); fractions checked by SDS-PAGE. (In general: SEC sorts molecules by how far they enter the pores of the column.)
The target of data set [2] is T1, Biotin-FLAG-NLRP1 M1184V (human, UniProt Q9C000 1-1473, M1184V, biotin).
T1 construct: NLRP1 full length, natural variant M1184V; the construct for purification from HEK293T and its biotinylation are not described in the methods; also called M1184VHEK; source: HEK293T cells, purified
T1 sequence (looked up): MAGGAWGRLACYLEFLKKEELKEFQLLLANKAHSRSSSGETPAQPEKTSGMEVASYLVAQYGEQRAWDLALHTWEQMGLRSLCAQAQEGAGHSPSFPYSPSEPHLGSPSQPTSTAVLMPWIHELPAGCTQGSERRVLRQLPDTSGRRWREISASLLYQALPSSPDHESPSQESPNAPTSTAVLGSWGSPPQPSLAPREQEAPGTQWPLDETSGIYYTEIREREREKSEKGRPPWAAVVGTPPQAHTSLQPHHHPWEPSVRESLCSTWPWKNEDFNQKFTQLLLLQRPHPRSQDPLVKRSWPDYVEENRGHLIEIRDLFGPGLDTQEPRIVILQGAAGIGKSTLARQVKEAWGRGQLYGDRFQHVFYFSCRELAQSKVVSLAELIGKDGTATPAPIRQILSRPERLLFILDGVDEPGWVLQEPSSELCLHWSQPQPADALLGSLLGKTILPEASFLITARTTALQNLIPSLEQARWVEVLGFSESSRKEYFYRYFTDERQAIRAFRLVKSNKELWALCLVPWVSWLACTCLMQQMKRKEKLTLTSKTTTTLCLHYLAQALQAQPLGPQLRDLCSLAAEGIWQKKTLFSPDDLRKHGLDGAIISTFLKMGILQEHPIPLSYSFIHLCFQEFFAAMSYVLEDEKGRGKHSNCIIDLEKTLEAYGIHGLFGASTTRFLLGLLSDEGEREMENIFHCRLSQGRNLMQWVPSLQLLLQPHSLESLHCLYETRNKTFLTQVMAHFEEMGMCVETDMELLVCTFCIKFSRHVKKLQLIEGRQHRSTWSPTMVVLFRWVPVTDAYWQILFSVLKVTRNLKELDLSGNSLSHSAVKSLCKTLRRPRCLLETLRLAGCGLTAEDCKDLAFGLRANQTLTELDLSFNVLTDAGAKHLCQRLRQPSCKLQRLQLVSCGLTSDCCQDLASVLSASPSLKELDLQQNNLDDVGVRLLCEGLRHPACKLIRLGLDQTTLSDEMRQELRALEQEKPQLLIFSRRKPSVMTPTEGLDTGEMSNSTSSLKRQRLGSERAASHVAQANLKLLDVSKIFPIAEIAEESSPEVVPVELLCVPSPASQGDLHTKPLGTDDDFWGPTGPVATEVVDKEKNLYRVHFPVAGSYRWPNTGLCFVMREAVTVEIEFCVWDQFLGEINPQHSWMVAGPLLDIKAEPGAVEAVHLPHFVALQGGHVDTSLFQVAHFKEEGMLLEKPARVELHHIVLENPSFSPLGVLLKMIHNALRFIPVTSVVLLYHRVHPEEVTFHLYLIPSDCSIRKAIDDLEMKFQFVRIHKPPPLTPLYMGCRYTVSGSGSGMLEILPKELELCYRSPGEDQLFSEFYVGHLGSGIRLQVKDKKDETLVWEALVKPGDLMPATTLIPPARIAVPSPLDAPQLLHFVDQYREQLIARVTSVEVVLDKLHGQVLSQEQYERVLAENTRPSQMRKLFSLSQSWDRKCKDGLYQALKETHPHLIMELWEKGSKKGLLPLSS
Nature of the data set: SPR; Biotin-FLAG-NLRP1 (from HEK293T) or biotin-MBP-NLRP1 (from Sf9, multimer fraction) or biotin-MBP immobilised on a streptavidin chip; DPP9 injected at 78-2500 nM, single-cycle kinetics, 10 mM Hepes pH 7.5, 150 mM NaCl, 0.5 mM TCEP, 0.05% Tween-20. To be noted: both partners purified. A general note: SPR reads the build-up and loss of mass on a sensor chip optically.

The target in data set [3] is T2, biotin-MBP-NLRP1 M1184V (Avi-MBP-tev-NLRP1 M1184V) (human, UniProt Q9C000 1-1473, M1184V, biotin (on the Avi tag, BirA co-expressed)).
T2 construct: NLRP1, human, isoform 1, residues 1-1473, natural variant M1184V; also called M1184VSf9; source: Sf9 insect cells, co-expressed with BirA, purified (multimer or void SEC fraction); not shown: Avi, N-terminal, kept; MBP, N-terminal, kept
T2 sequence (looked up): T1 sequence (looked up)
The description is as above. To be noted: both partners purified.

Data set [4] deals with T3, NLRP1-FIIND (M1184V) (human, UniProt Q9C000 1064-1376, M1184V).
T3 construct: NLRP1 FIIND domain (ZU5-UPA), human, residues 1064-1376 of isoform 1, natural variant M1184V; Mostly autocleaved between F1212 and S1213, the fragments stay together; GST is still on the protein during the GST pull-down of the co-expression experiments and is cut off by TEV before SEC, SEC-MALS and SPR; also called M1184V variant FIIND; source: also co-expressed with His6-DPP9 with or without …
T3 sequence (looked up): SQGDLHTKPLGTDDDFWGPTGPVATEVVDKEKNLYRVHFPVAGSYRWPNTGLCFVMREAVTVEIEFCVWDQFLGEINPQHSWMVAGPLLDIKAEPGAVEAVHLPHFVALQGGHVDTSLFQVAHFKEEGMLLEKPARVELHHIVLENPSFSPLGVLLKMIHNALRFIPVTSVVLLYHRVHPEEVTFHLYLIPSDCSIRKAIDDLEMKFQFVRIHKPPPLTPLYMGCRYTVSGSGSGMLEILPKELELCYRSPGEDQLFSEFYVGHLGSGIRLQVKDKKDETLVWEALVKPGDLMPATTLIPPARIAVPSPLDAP
Nature of the data set: SEC-MALS; co-eluting SEC fractions of FIIND, DPP9 and free UPA co-expressed in Sf9 and co-purified; 0.5-1.0 mg/ml, Superose 6 increase (10/300) GL, buffer A without glycerol. To be noted: partners not purified.

B1: MBP-NLRP1 M1184V (full length) (natural protein, human, UniProt Q9C000 1-1473, looked up)
chain: T1 sequence (looked up)
notes: NLRP1, human, isoform 1, residues 1-1473, codon-optimized, natural variant M1184V; More autocleaved between F1212 and S1213 than the wt; source: Sf9 insect cells, purified (MBPTrap, SEC); not shown: MBP, N-terminal, kept
B1: the binding result in data set [1] is “binds”.

B2: His6-tev-DPP9 (enzyme, UniProt Q86TI2 1-863, looked up)
chain: MATTGTPTADRGDAAATDDPAARFQVQKHSWDGLRSIIHGSRKYSGLIVNKAPHDFQFVQKTDESGPHSHRLYYLGMPYGSRENSLLYSEIPKKVRKEALLLLSWKQMLDHFQATPHHGVYSREEELLRERKRLGVFGITSYDFHSESGLFLFQASNSLFHCRDGGKNGFMVSPMKPLEIKTQCSGPRMDPKICPADPAFFSFINNSDLWVANIETGEERRLTFCHQGLSNVLDDPKSAGVATFVIQEEFDRFTGYWWCPTASWEGSEGLKTLRILYEEVDESEVEVIHVPSPALEERKTDSYRYPRTGSKNPKIALKLAEFQTDSQGKIVSTQEKELVQPFSSLFPKVEYIARAGWTRDGKYAWAMFLDRPQQWLQLVLLPPALFIPSTENEEQRLASARAVPRNVQPYVVYEEVTNVWINVHDIFYPFPQSEGEDELCFLRANECKTGFCHLYKVTAVLKSQGYDWSEPFSPGEDEFKCPIKEEIALTSGEWEVLARHGSKIWVNEETKLVYFQGTKDTPLEHHLYVVSYEAAGEIVRLTTPGFSHSCSMSQNFDMFVSHYSSVSTPPCVHVYKLSGPDDDPLHKQPRFWASMMEAASCPPDYVPPEIFHFHTRSDVRLYGMIYKPHALQPGKKHPTVLFVYGGPQVQLVNNSFKGIKYLRLNTLASLGYAVVVIDGRGSCQRGLRFEGALKNQMGQVEIEDQVEGLQFVAEKYGFIDLSRVAIHGWSYGGFLSLMGLIHKPQVFKVAIAGAPVTVWMAYDTGYTERYMDVPENNQHGYEAGSVALHVEKLPNEPNRLLILHGFLDENVHFFHTNFLVSQLIRAGKPYQLQIYPNERHSIRCPESGEHYEVTLLHFLQEYL
notes: dipeptidyl peptidase 9 (DPP9); Dimer by SEC-MALS (192 kDa); also called His6-DPP9; source: Sf9 insect cells, purified; also co-expressed with GST-tev-FIIND constructs in Sf9 and co-purified
For B2, the Kd in data set [2] was 144 nM; in data set [3], 149 nM. Moreover, the “stoichiometry N” value in data set [4] came out at 2 DPP9 chains per FIIND.

The term Kd denotes the concentration at which binding is half-saturated. Higher therefore signals lower affinity. In general, stoichiometry N refers to a count of units in the complex or per binding partner.

The values are drawn from publication PMC9700037, “Inflammasome sensor NLRP1 disease variant M1184V promotes autoproteolysis and DPP9 complex formation by stabilizing the FIIND domain” (The Journal of Biological Chemistry, 2022).
